Laboratory results published in the nanobody polyreactivity screen of Harvey et al. (2022).

Assay: yeast display, Sf9 membrane polyspecificity reagent, FACS + sequencing; frameworks hold sequencing errors
In short: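 Genes from sorted yeast were amplified by colony PCR, read by MiSeq 2 × 250 sequencing and filtered on CDR length. These cells carried a synthetic nanobody library in Saccharomyces cerevisiae BJ5465 and were sorted by FACS into low and high (top ~1%) gates on anti-HA and streptavidin fluorescence. Polyreactivity is labelled according to the gate of origin.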

Sequence	polyreactivity (PSR sort gate)
QVQLVESGGGLVQAGGSLRLSCAASGRIFGAYAMGWYRQAPGKERELVAAIDIRGGNTYYADSVKGRFTISRDNAKNTVYLQMNSLKPEDTAVYYCAADTWYDAYNYWGQGTQVNVSS	low polyreactivity
QVQLVESGGGLVQAGGSLRLSCAASGRIFYPYAMGWYRQPPGKERELVAAIDKGGGSTYYADSVKGRFTISRDNAKNTVYLQMNSLKPEDTAVYYCAAGWEYPYDYWGQGTQVTVSS	low polyreactivity
QVQLVESGVGLVQAGGSLRLSCAASGRTIPIYAMGWYRQAPGKERELVASITRSGGSTYYADSVKGRFTISRDNAKYTVYLQMNSLKPEDTAVYYCAAAANSYSVYSGKFYYWGQGTQVTVSS	high polyreactivity
QVQLVESGGGLVQAGGSLRLSCAASGSTFNWNAMGWYRPAPGKERELVAAISRSGGRTSYADSVKGRFTISRDNAKNTVYLQMNSLKPEDTAVYYCAAEKVGTRPSRDYDYWGQGTQVTVSS	high polyreactivity
QVQLGESGGGLVQAGGSLRLSCAASGIIIFLYAMGWYRPAPGKEREFVAAINYSSGSTYYADSVKGRFTISRDNAKNTVYLQMNSLKPEDTAVYYCAADPVHRYPGTGGYWGQGTQVTVSS	low polyreactivity
QVQLVESGGGLVQAGGSLRLSCAASGGIFKRNTMGWYRQAPGKERELVAGISWTGGRTYYADSVKGRFTISRDNAKNTVYLHMNSLKPEDTAVYYCAAKPLQGVRRVEYWGQGTQVTVSS	high polyreactivity
QVQLVESGGGLVQAGGSLRLSCAASGSTFTGYAMGWYRQAPGKEREFVANITKRGGRTYYADSVKGRFTISRDNAKNTVYLQMNSLKPEDTAGYYCARDQGKLVVPYEYWGQATQVTVSS	high polyreactivity
QVHLVESGGGIVQAGGSLRLSCAASGRTFRKYAMGWYRQAPGKEMELVAAISWSGGSTYYANSVKGRFTISRDHAKNTVYLQLNSLIPEDPAVYYCAATAYYYYDYDYWGQGTQVTVSS	low polyreactivity
QVQLVESGGGLVQAGGSHRLSCAASGYIFGYNAMGWYRQAPGKEREFVAAIRFSGGSTYYADSVKGRFTISRDNAKNTVYLQMNSMKPEDTAVYYCAKRGYGHLIPIAYEYWGQGTQVTVSS	low polyreactivity
QVQLVESGGGLVQAGGSLRLSCAASGFTIPVYAMGWYRQAPGKEMELVADITESGDSTYYADSVKGRFTISRDNAKNTVYLQMNSLKPEDTAVYYCAADGGWFWSLFYTFAFDYCGQGTQVTVSS	low polyreactivity
QVQLVESGGGLVQAGGSLRLSCAASGSILGDNAMAWYRQAPGKERELVAAISYRGGSTYADSVKGRFTISRANAKNTVYLQMNSLKPEDTAVYYCNKTDIDDSQYREYEYWGQGTQVTVSS	low polyreactivity
QVQLVESGGGLVQAGGSLRLICAASGRIFKYNAMGWDRQAPGTERELVAAISSSGGSTYYADSVKGRFTISRDNAKYTVYLLMNSLKPEDTAVYYCAARFNSGVYRYDYWGQGTQVTVSS	high polyreactivity
QVQLVESGGGLVQAGGSLRLSCSASGSIFDAYAMGWYRQAPGKEREMVAAISKGGTRTYYADSVKGRFTISRDNAKNTVYLQMNSLIPEDTAFYYCNSYYRREPDDGDYDYWGQGTQVTVSS	high polyreactivity
QVQIVESGGGLVQAGGSLRLSCAASGRIFVGYAMGWYRQAPGKERELFAAISRDGDNTFYADSVKGRFTISRDNAKNTVYLQMNSLKPEDTAVYYCAVDFCVWYGSAYAYDYYWGQGTQVTVSS	low polyreactivity
QVQLLESGGGLVQAGGSLRLSCAASGFTFRVNAMGWYIQAPGKERELVAAISSGGSTNYADSVKGRFTISRDNAKNTVYLQMNSLKPEDTAVYYCAKRFKYIYFWGQGTQVTVSS	high polyreactivity
QVQLVESGGGLVQAGGSLRLSCAASGIIFYWNAMGWYRQAPGKERELVAGITRGGSTYYADSVKGRFTISRDNATNTVYLLMNSLKPEDTAVYYCAKRQASRRVSYSRYDYWGQGTQVTVSS	high polyreactivity
QVQLVESGGGLVQAGGSLRLSCAASGRTFGSNAMGWYRQAPGKERELVAAISFSGGSTYYADSVKGRFTISRDNAKNTVYLQMNSLKPEDTAVYYCAAEYPQKGDRGSRRRIDGYWGQGTQVTVSS	high polyreactivity
QVQLVESGGGLVQAGGSLRLSCAASGSISKFYAMGWYRQAPGKERELVAAISSGGITNYADSLKGRFTISRDNAKNTVYLQMNSLKPEDTAVYYCAKDYPYYEGAKYYYWGQGTQVTVSS	high polyreactivity
QVQLVESVGGLLQAGGSLRLSCAASGRIFTGYAMGWYRQAPGKERELVAAISSRGGSTYYADSVKGRFTISRDNAKNTVYLQMNSLKPEDTAVYYCNAYQWRHRYTMYYWGQGTQVTVSS	high polyreactivity
QVQLVESGGGLVQAGGSLRLSCAASGIIIDYNAMGWYRQAHGKERELVAAISSRGGSTYYADSVKGRFTISRDNAKNTVYLQMNSLKPEDTAVYYCAKVIGKYVNSYYWGQGTQVTVSS	low polyreactivity
QVQLEESGGGLVQAGGSLRLSCAASGSTFYINAMGWYRQAPGKERELVAAITWRGGRTYYADSVKGRFTISRDNAKNTVYLQLNSLKPEDTAVYYCAAKVRWHRGTSSYYYWGQGTQVTVSS	high polyreactivity
QVQLVESGRGLVQAGGSLRVSCAASGNTYLYYGMGWYRHAPGKERELVAAITQSGGTTYYADSVKGRFTISRDNAKNTVYFQMNTLIPEDTAVYYFAATRYYYYWYVYDDRGDYWGQGTQVSVSS	low polyreactivity

Sequence	polyreactivity (PSR sort gate)
QVQLVESGGGLVQAGGSLRLSCAASGFTFEGYAMGGYRQAPGKERELVAAINGSGGSTYYADSVKGRFTISRDYAKNTVYLQMNSLKPEDTAVYYCAKSGYGNRGFDYWGQGTQVTVSS	low polyreactivity
QVQLVESGGGLVQAGGSLRLSCAASGSTFAGYAMGWYRQAPGKERELVAAISYSGGTTYYADSVKGRFTISRDNAKNTVYLQMNSLKPEDTAVFYCAARKKYKTPSYDMYYWGQGTQVTVSS	high polyreactivity
QVQLVESGGGLVQAGGSLRLSCAASGSTFSVYAMGWYRQAPGKERELVAAITSGGSTNYADSVKGRFTISRDNAKNTVYLQMNSLKPEDTAVYYCAAYLYDTIYTSYREYDYWGQGTQVTVSS	low polyreactivity
QVQLVESGGGLVQAGGSLRLSCAASGFIFYRYARGWYRQAPGKEREFVAAITRSAGGTYYADSVKGRFTISRDNAKNTVYLQMNSLKPEDTAVYYCAAVYRSGSRYYLGWYNYWGQGTQVTVSS	high polyreactivity
QVQLVESGGGLVQAGGSLRLSCAASGRTFKGNAMGWYRQAPGKERELVAAISKSGGRTYYADSVKGRFTISRDNAKNTVYLQMNSLKPEDTAVYYCAAGYYPSSSGDDYWGQGTQVTVSS	high polyreactivity
QVQLVESGGGLVQAGGSLRLSCAASGSTFSLYDMGWYRQAPGKERELVAAISYSGGSTYYADSVKGRFTISRDNAKNTVYLQMNSLKPEDTAVFYCATRLFYPRFFYWGQGTQVTVSS	high polyreactivity
QVKLVESGGGLVQAGGSLRLICAASGFTFRYYTMGWYRQAPGKARELVAAISRSSGSRTYYADSVKGRFTISRDNAKNTVYLQMNSLKPEDTAVYYCNADPAYQFDYWGQGTQVTVSS	high polyreactivity
QVQLVESGGGLVQAGGSLRLSCAASGSIFVNNAMGWYRQAPGKERELVAAISSRSSRTFYADSVKWRFTISRDNAKNTVYLQMNCLKPEDTAVYSCAVKKRAPDGDYWGQGTQVTVSS	high polyreactivity
QVQLVESGGGLVQAGGSLRLSCAASGRIFPYYTMGWYRQAPGKERELVAAISRRGSSTYYADSVKGRFTISRDNAQNTVYLQMNSLKPEDTAVYNCAADRGGYTRTGEYDYWGQGTQVTVSS	high polyreactivity
QVQLVESGGGLVQAGGSLRLSCAASGRTLPFYAMGWYRPAPGKERELVAAISRSGARTYYADSVKGRFTISRDHAKNTVYLQMNSLKPEDTAVYYFAAGFMWYIGNSKFDYWGQGTQVTVSS	high polyreactivity
QVQLVESGGGLVQAGGSLRLSCAASGRIFPTNAMGWYRQAPGKERELVAAIPVSGGSTYYADSVKGRFTISRDNAKNTVYLQMNSLKPEDTAVYYCAADSSTYRFDYWGQGTQVTVSS	low polyreactivity
QVQLVESGGGLVQAGGSLRLSCAASGSIFEWYAMGWYRQAPGKERELVAAISSSGTSTYYADSVKGRFTISRDNAKNTVYLQMNSLKPEDTAVYYCNTDLSRLSQHDYWGQGTQVTVSS	low polyreactivity
QVQLVESGGGLVQAGGSLRLSCAASGFIFKSYAMGWYRQAPGKERELVAAISGRGGSTYYADSVKGRFTISRDNAKNTVYLQMNSLKPEDTAVYYCNVGPSTYYQYDYWGQGTQVTVSS	high polyreactivity
QVQLVESGGGLVQAGGSLRLSCAASGFTFWYYAMGWYRQAPGKERELVATITSGDSTKYADSVKGSFTISRDNAKNTVFLQMNSLNPEDNAVYYCAAEKVLPFIGYDYWGQGTQVTVSS	low polyreactivity
QVQLVESGGGLVQAGGSLRLSCAASGLILSAYAMGWYRQAPGKERELVAAISGSGGRTYYADSVKGRFTISRDNAKNTVYLQMNSLKPEDTAVYYCAAPYTYVGSYTYNYWGQGTQVTVSS	high polyreactivity
QVQLVESGGGLVQAGGSLRLSCAASGSTSQRYSMGWYRQAPAKEREVVAGITTSGGRTYYADSVKGRFTISRDNAKNTVYLQMNSLKPEDTAVYYCAARTQIWKYRGYYSWGQGTQVTVSS	high polyreactivity
QVQLVESGGGLVQAGGSLRLSCAASGFIFGYYTMGWYRQAPGKERELVASITRGGSTNYADSVKGRFTISRDNAKYTVYLQMNSLNPEDTAVYYCAKRYAQTYSVSRYYYWGQGTQVTVSS	high polyreactivity
QVQLVESGGGFVQAGGSLRLSCAASGRIFAFYTMGWSRQAPGKEREFVAAISRSGGSTYYADSVKGRFTISRDNAKNTVYLQMNSLKPEDTAVYYCAKGGYSPKRVKYYDYWGQGTQVTVSS	low polyreactivity
QVQLVESGGGLVQAGGSLRLSCAASGLIFRVYTMGWYRQAPGKERELVSAITGRGGRTYYADSVKGRFTISRDNAKNTVYLQMNSLKPEDTAVYYCATGGRYQQAAYTGYNYWGQGTQVTVSS	high polyreactivity
QVQHEESGGGLVQAGGSLRLSSAASGSTFVDYDMGCYRQAPGKVRELVAGITTGGSTNYADSVKGRFTISRDNALNTVYLQLKRLKPEDTAVYYCNSDSYTNLVPDYLYYWYEYWGQGTQVTVSS	low polyreactivity
QVQLVESGGGLVQAGGSLRLSCAASGRSFTGYAMGWYRQATGKERELVASISDSGASTYYADSVKGRFTISRDNAKNTVYLLMNSLKPEDTAVFYCAASYPSYNWSVGDDDYWGQGTQVTVSS	low polyreactivity
